Test results reported in the supplement of paper PMC10567573.

B1: OAS1 (parent)
chain: TPAKSLDKFIEDYLLPDTCFRMQI

Variants of: B1
Assay: protein stability index of a GFP-peptide fusion (GPS, HEK-293T) (PSI 1-6); higher = more stable
Conditions: c terminus: a fixed tail appended
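Note: lentivirally expressed fusions sorted by FACS into six bins by GFP to DsRed ratio, PSI derived from sequencing read proportions per bin multiplied by bin number.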

Variant | protein stability index
TPAKSLDKFIEDYLLIDTCFRMQI | 2.41
TPAKSLDKFIEDYLLVDTCFRMQI | 3.9
TPAKSLDKFIEDYLLEDTCFRMQI | 1.93
TPAKSLDKFIEDYLLWDTCFRMQI | 1.9
TPAKSLDKFIEDYLLADTCFRMQI | 2.73
TPAKSLDKFIEDYLLCDTCFRMQI | 2.44
TPAKSLDKFIEDYLLSDTCFRMQI | 2.49
TPAKSLDKFIEDYLLQDTCFRMQI | 3.14
TPAKSLDKFIEDYLLMDTCFRMQI | 1.84
TPAKSLDKFIEDYLLRDTCFRMQI | 3.61
TPAKSLDKFIEDYLLNDTCFRMQI | 2.65
TPAKSLDKFIEDYLLTDTCFRMQI | 2.68
TPAKSLDKFIEDYLLYDTCFRMQI | 1.82
TPAKSLDKFIEDYLLKDTCFRMQI | 2.78
TPAKSLDKFIEDYLLHDTCFRMQI | 2.28
TPAKSLDNFIEDYLLPDTCFRMQI | 2.09
TPAKSLDAFIEDYLLPDTCFRMQI | 2.58
TPAKSLDRFIEDYLLPDTCFRMQI | 3.07
TPAKSLDCFIEDYLLPDTCFRMQI | 2.99
TPAKSLDSFIEDYLLPDTCFRMQI | 2.43
TPAKSLDEFIEDYLLPDTCFRMQI | 3.06
TPAKSLDVFIEDYLLPDTCFRMQI | 3.42
TPAKSLDWFIEDYLLPDTCFRMQI | 1.98
TPAKSLDGFIEDYLLPDTCFRMQI | 1.62

Variant | protein stability index
TPAKSLDLFIEDYLLPDTCFRMQI | 3.06
TPAKSLDTFIEDYLLPDTCFRMQI | 3.17
TPAKSLDPFIEDYLLPDTCFRMQI | 3.17
TPAKSLDDFIEDYLLPDTCFRMQI | 2.58
TPAKSLDMFIEDYLLPDTCFRMQI | 2.04
TPAKSLDHFIEDYLLPDTCFRMQI | 1.77
TPAKSLDQFIEDYLLPDTCFRMQI | 1.68
TPAKSLYKFIEDYLLPDTCFRMQI | 2.21
TPAKSLSKFIEDYLLPDTCFRMQI | 3.08
TPAKSLWKFIEDYLLPDTCFRMQI | 3.11
TPAKSLTKFIEDYLLPDTCFRMQI | 1.25
TPAKSLDKFIESYLLPDTCFRMQI | 2.1
TPAKSLDKFIEWYLLPDTCFRMQI | 2.51
TPAKSLDKFIENYLLPDTCFRMQI | 2.91
TPAKSLDKFIETYLLPDTCFRMQI | 2.58
TPAKSLDKFIEHYLLPDTCFRMQI | 2.25
TPAKSLDKFIEIYLLPDTCFRMQI | 1.4
TPAKSLDKFIECYLLPDTCFRMQI | 1.76
TPAKSLDKFIEQYLLPDTCFRMQI | 2.92
TPAKSLDKFIEKYLLPDTCFRMQI | 2.75
TPAKSLDKFIEAYLLPDTCFRMQI | 3.14
TPAKSLDKFIELYLLPDTCFRMQI | 2.81
TPAKSLDKFIEYYLLPDTCFRMQI | 2.19
TPAKSLDKFIEFYLLPDTCFRMQI | 2.97

Variant | protein stability index
TPAKSLDKFIEGYLLPDTCFRMQI | 1.79
TPAKSLDKFIERYLLPDTCFRMQI | 3.33
TPAKSLDKFIEEYLLPDTCFRMQI | 2.14
TPAKSLDKFIEMYLLPDTCFRMQI | 2.77
TPAKSLDKFIEDPLLPDTCFRMQI | 1.57
TPAKSLDKFIEDCLLPDTCFRMQI | 3.56
TPAKSLDKFIEDQLLPDTCFRMQI | 1.5
TPAKSLDKFIEDGLLPDTCFRMQI | 1.85
TPAKSLDKFIEDFLLPDTCFRMQI | 3.4
TPAKSLDKFIEDRLLPDTCFRMQI | 1.27
TPAKSLDKFIEDSLLPDTCFRMQI | 2.22
TPAKSLDKFIEDLLLPDTCFRMQI | 3.57
TPAKSLDKFIEDTLLPDTCFRMQI | 1.9
TPAKSLDKFIEDALLPDTCFRMQI | 1.98
TPAKSLDKFIEDWLLPDTCFRMQI | 3.04
TPAKSLDKFIEDELLPDTCFRMQI | 1.79
TPAKSLDKFIEDILLPDTCFRMQI | 2.54
TPAKSLDKFIEDDLLPDTCFRMQI | 2.36
TPAKSLDKFIEDNLLPDTCFRMQI | 1.85
TPAKSLDKFIEDVLLPDTCFRMQI | 2.87
TPAKSLDKFIEDMLLPDTCFRMQI | 2.12
TPAKSLDKFIEDYLLPLTCFRMQI | 3.49
TPAKSLDKFIEDYLLPYTCFRMQI | 2.32
TPAKSLDKFIEDYLLPETCFRMQI | 2.69

Variant | protein stability index
TPAKSLDKFIEDYLLPSTCFRMQI | 2.79
TPAKSLDKFIEDYLLPPTCFRMQI | 3.25
TPAKSLDKFIEDYLLPTTCFRMQI | 2.03
TPAKSLDKFIEDYLLPQTCFRMQI | 1.88
TPAKSLDKFIEDYLLPGTCFRMQI | 3.94
TPAKSLDKFIEDYLLPRTCFRMQI | 2.98
TPAKSLDKFIEDYLLPATCFRMQI | 2.9
TPAKSLDKFIEDYLLPFTCFRMQI | 3.31
TPAKSLDKFIEDYLLPNTCFRMQI | 1.77
TPAKSLDKFIEDYLLPHTCFRMQI | 2.43
TPAKSLDKFIEDYLLPKTCFRMQI | 2.51
TPAKSLDKFIEDYLLPMTCFRMQI | 2.99
TPAKSLDKFIIDYLLPDTCFRMQI | 2.61
TPAKSLDKFIMDYLLPDTCFRMQI | 3.78
TPAKSLDKFIWDYLLPDTCFRMQI | 2.84
TPAKSLDKFIKDYLLPDTCFRMQI | 2.83
TPAKSLDKFIFDYLLPDTCFRMQI | 2.29
TPAKSLDKFILDYLLPDTCFRMQI | 3.59
TPAKSLDKFIQDYLLPDTCFRMQI | 2.19
TPAKSLDKFIDDYLLPDTCFRMQI | 2.34
TPAKSLDKFIYDYLLPDTCFRMQI | 1.66
TPAKSLDKFIVDYLLPDTCFRMQI | 3.93
TPAKSLDKFIADYLLPDTCFRMQI | 2.77
TPAKSLDKFISDYLLPDTCFRMQI | 1.97

Variant | protein stability index
TPAKSLDKFICDYLLPDTCFRMQI | 2.38
TPAKSLDKFIPDYLLPDTCFRMQI | 3.89
TPAKSLDKFIGDYLLPDTCFRMQI | 3
TPAKSLDKFIRDYLLPDTCFRMQI | 4.73
TPAKSLDKFITDYLLPDTCFRMQI | 2.33
TPAKSLDKFIHDYLLPDTCFRMQI | 1.26
TPAKSLDKFINDYLLPDTCFRMQI | 3.04
TPAKSLDKFCEDYLLPDTCFRMQI | 3.19
TPAKSLDKFLEDYLLPDTCFRMQI | 3.56
TPAKSLDKFAEDYLLPDTCFRMQI | 2.48
TPAKSLDKFVEDYLLPDTCFRMQI | 3.54
TPAKSLDKFYEDYLLPDTCFRMQI | 2.38
TPAKSLDKFMEDYLLPDTCFRMQI | 3.83
TPAKSLDKFGEDYLLPDTCFRMQI | 2.23
TPAKSLDKFPEDYLLPDTCFRMQI | 1.87
TPAKSLDKFTEDYLLPDTCFRMQI | 2.35
TPAKSLDKFEEDYLLPDTCFRMQI | 2.52
TPAKSLDKFHEDYLLPDTCFRMQI | 1.92
TPAKSLDKFFEDYLLPDTCFRMQI | 3.41
TPAKSLDKFQEDYLLPDTCFRMQI | 1.67
TPAKSLDKFSEDYLLPDTCFRMQI | 1.7
TPAKSLDKFNEDYLLPDTCFRMQI | 1.51
TPAKSLDKFKEDYLLPDTCFRMQI | 1.31
TPAKSLDKFDEDYLLPDTCFRMQI | 1.55

Variant | protein stability index
TPAKSLDKFREDYLLPDTCFRMQI | 2.78
TPAKSLDKFIEDYLGPDTCFRMQI | 2.43
TPAKSLDKFIEDYLKPDTCFRMQI | 2.07
TPAKSLDKFIEDYLIPDTCFRMQI | 3.88
TPAKSLDKFIEDYLEPDTCFRMQI | 3.04
TPAKSLDKFIEDYLSPDTCFRMQI | 2.26
TPAKSLDKFIEDYLAPDTCFRMQI | 1.72
TPAKSLDKFIEDYLRPDTCFRMQI | 3.08
TPAKSLDKFIEDYLDPDTCFRMQI | 1.74
TPAKSLDKFIEDYLTPDTCFRMQI | 1.74
TPAKSLDKFIEDYLWPDTCFRMQI | 2.56
TPAKSLDKFIEDYLQPDTCFRMQI | 3.04
TPAKSLDKFIEDYLFPDTCFRMQI | 3.79
TPAKSLDKFIEDYLHPDTCFRMQI | 2.12
TPAKSLDKFIEDYLVPDTCFRMQI | 3.19
TPAKSLDKFIEDYLNPDTCFRMQI | 2.21
TPAKSLDKFIEDYLPPDTCFRMQI | 2.31
TPAKSLDKFIEDYLLPDPCFRMQI | 1.59
TPAKSLDKFIEDYLLPDHCFRMQI | 2.22
TPAKSLDKFIEDYLLPDFCFRMQI | 2.45
TPAKSLDKFIEDYLLPDICFRMQI | 2.04
TPAKSLDKFIEDYLLPDLCFRMQI | 2.42
TPAKSLDKFIEDYLLPDGCFRMQI | 3.04
TPAKSLDKFIEDYLLPDQCFRMQI | 2.89

Variant | protein stability index
TPAKSLDKFIEDYLLPDNCFRMQI | 2.41
TPAKSLDKFIEDYLLPDACFRMQI | 2.25
TPAKSLDKFIEDYLLPDKCFRMQI | 1.83
TPAKSLDKFIEDYLLPDMCFRMQI | 2.36
TPAKSLDKFIEDYLLPDCCFRMQI | 3.48
TPAKSLDKFIEDYLLPDDCFRMQI | 3.16
TPAKSLDKFIEDYLLPDECFRMQI | 3.65
TPAKSLDKFIEDYLLPDRCFRMQI | 3.05
TPAKSLDKGIEDYLLPDTCFRMQI | 1.62
TPAKSLDKWIEDYLLPDTCFRMQI | 3.55
TPAKSLDKMIEDYLLPDTCFRMQI | 3.26
TPAKSLDKNIEDYLLPDTCFRMQI | 3.1
TPAKSLDKEIEDYLLPDTCFRMQI | 1.75
TPAKSLDKAIEDYLLPDTCFRMQI | 2.42
TPAKSLDKTIEDYLLPDTCFRMQI | 2.95
TPAKSLDKYIEDYLLPDTCFRMQI | 1.96
TPAKSLDKLIEDYLLPDTCFRMQI | 3.52
TPAKSLDKSIEDYLLPDTCFRMQI | 2.32
TPAKSLDKHIEDYLLPDTCFRMQI | 2.91
TPAKSLDKRIEDYLLPDTCFRMQI | 2.08
TPAKSLDKQIEDYLLPDTCFRMQI | 2.15
TPAKSLDKVIEDYLLPDTCFRMQI | 3.9
TPAKSLDKDIEDYLLPDTCFRMQI | 2.17
TPAKSLDKPIEDYLLPDTCFRMQI | 1.97

Variant | protein stability index
TPAKSLDKCIEDYLLPDTCFRMQI | 2.66
TPAKSLDKKIEDYLLPDTCFRMQI | 2.13
TPAKSLDKFIEDYHLPDTCFRMQI | 2.62
TPAKSLDKFIEDYMLPDTCFRMQI | 3.5
TPAKSLDKFIEDYNLPDTCFRMQI | 3.44
TPAKSLDKFIEDYYLPDTCFRMQI | 3.1
TPAKSLDKFIEDYSLPDTCFRMQI | 1.74
TPAKSLDKFIEDYILPDTCFRMQI | 2.08
TPAKSLDKFIEDYTLPDTCFRMQI | 2.05
TPAKSLDKFIEDYDLPDTCFRMQI | 1.77
TPAKSLDKFIEDYFLPDTCFRMQI | 3.94
TPAKSLDKFIEDYPLPDTCFRMQI | 2.46
TPAKSLDKFIEDYQLPDTCFRMQI | 1.62
TPAKSLDKFIEDYRLPDTCFRMQI | 1.8
TPAKSLDKFIEDYCLPDTCFRMQI | 2.35
TPAKSLDKFIEDYVLPDTCFRMQI | 2.83
TPAKSLDKFIEDYKLPDTCFRMQI | 2.37
TPAKSLDKFIEDYELPDTCFRMQI | 1.74
TPAKSLDKFIEDYWLPDTCFRMQI | 2.18
TPAKSLDKFIEDYGLPDTCFRMQI | 2.84
